In paper PMC7568260, “In vitro reconstitution and characterization of pyruvate dehydrogenase and 2‐oxoglutarate dehydrogenase hybrid complex from Corynebacterium glutamicum” (MicrobiologyOpen, 2020):

How the values were obtained:
[1] = target: CgE1o (thiamine diphosphate-dependent 2-oxoglutarate dehydrogenase, OdhA), C-terminal His-tagged (Corynebacterium glutamicum) (UniProt Q8NRC3); test: SEC; HiLoad 26/600 Superdex 200 pg or Superose 6 10/300 GL column, TESG10N buffer; mixtures incubated on ice for 30 min before the run; masses estimated against size standards; fractions read by SDS-PAGE (CBB) or Western blot
[2] = target: CgE2-E3 subcomplex (Corynebacterium glutamicum) (UniProt Q8NNJ2)
[3] = target: CgE1p (thiamine diphosphate-dependent pyruvate dehydrogenase, AceE), C-terminal His- and Flag-tagged (Corynebacterium glutamicum) (UniProt Q8NNF6); test: SEC; HiLoad 26/600 Superdex 200 pg or Superose 6 10/300 GL column, TESG10N buffer; mixtures incubated on ice for 30 min before the run; masses estimated against size standards; fractions read by SDS-PAGE (CBB) or Western blot
purified protein [4] = substrate: CC(=O)C(=O)O; test: purified protein; type: biochemical, Corynebacterium glutamicum; details: 0.2 mM CoA, 0.3 mM thiamine pyrophosphate, 3 mM L-cysteine, 5 mM MgCl2, 1 mM APAD+ (NAD+ analogue), TES-NaOH pH 7.6, 30 °C, CgE1p 15 μg with CgE2-E3 15 μg
purified protein [5] = substrate: O=C(O)CCC(=O)C(=O)O; test: purified protein; type: biochemical, Corynebacterium glutamicum; details: 0.2 mM CoA, 0.3 mM thiamine pyrophosphate, 3 mM L-cysteine, 5 mM MgCl2, 1 mM APAD+ (NAD+ analogue), TES-NaOH pH 7.6, 30 °C, CgE1o 20 μg with CgE2-E3 15 μg

## CgE1o (thiamine diphosphate-dependent 2-oxoglutarate dehydrogenase, OdhA), C-terminal His-tagged (from UniProt Q8NRC3 1-1221) (enzyme)
[1]
  stoichiometry N: 6

## CgE1p (thiamine diphosphate-dependent pyruvate dehydrogenase, AceE), C-terminal His- and Flag-tagged (from UniProt Q8NNF6 1-922) (enzyme)
[2]
  PDH activity against the amount of CgE1p (37, 150, 300, 600 pmol) with a fixed amount of CgE2-E3 (18 pmol): 150 pmol
[3]
  stoichiometry N: 2

B1: reconstituted PDH complex (CgE1p with CgE2‐E3) (Corynebacterium glutamicum ATCC 13032) (protein)
chain: MADQAKLGGKPSDDSNFAMIRDGVASYLNDSDPEETNEWMDSLDGLLQESSPERARYLMLRLLERASAKRVSLPPMTSTDYVNTIPTSMEPEFPGDEEMEKRYRRWIRWNAAIMVHRAQRPGIGVGGHISTYAGAAPLYEVGFNHFFRGKDHPGGGDQIFFQGHASPGMYARAFMEGRLSEDDLDGFRQEVSREQGGIPSYPHPHGMKDFWEFPTVSMGLGPMDAIYQARFNRYLENRGIKDTSDQHVWAFLGDGEMDEPESRGLIQQAALNNLDNLTFVVNCNLQRLDGPVRGNTKIIQELESFFRGAGWSVIKVVWGREWDELLEKDQDGALVEIMNNTSDGDYQTFKANDGAYVREHFFGRDPRTAKLVENMTDEEIWKLPRGGHDYRKVYAAYKRALETKDRPTVILAHTIKGYGLGHNFEGRNATHQMKKLTLDDLKLFRDKQGIPITDEQLEKDPYLPPYYHPGEDAPEIKYMKERRAALGGYLPERRENYDPIQVPPLDKLRSVRKGSGKQQIATTMATVRTFKELMRDKGLADRLVPIIPDEARTFGLDSWFPTLKIYNPHGQNYVPVDHDLMLSYREAPEGQILHEGINEAGSVASFIAAGTSYATHGKAMIPLYIFYSMFGFQRTGDSIWAAADQMARGFLLGATAGRTTLTGEGLQHMDGHSPVLASTNEGVETYDPSFAYEIAHLVHRGIDRMYGPGKGEDVIYYITIYNEPTPQPAEPEGLDVEGLHKGIYLYSRGEGTGHEANILASGVGMQWALKAASILEADYGVRANIYSATSWVNLARDGAARNKAQLRNPGADAGEAFVTTQLKQTSGPYVAVSDFSTDLPNQIREWVPGDYTVLGADGFGFSDTRPAARRFFNIDAESIVVAVLNSLAREGKIDVSVAAQAAEKFKLDDPTSVSVDPNAPEE
notes: CgE1p C-terminal His (and Flag) tag, pKH4, 102,826 Da, dimer in solution; CgE2 (70,905 Da, lipoylated) co-expressed with N-terminal His/Flag CgE3 (50,652 Da), pKH13; E. coli BL21-CodonPlus (DE3); tags not cut; gel-filtration purified; with Dihydrolipoamide acetyltransferase component of pyruvate dehydrogenase complex (E2); Dihydrolipoyl dehydrogenase (E3)
Purified protein [4]
  Km: 3500 ± 200 µM

B2: reconstituted ODH complex (CgE1o with CgE2‐E3) (Corynebacterium glutamicum ATCC 13032) (protein)
chain: SSASTFGQNAWLVDEMFQQFQKDPKSVDKEWRELFEAQGGPNTTPATTEAQPSAPKESAKPAPKAAPAAKAAPRVETKPADKTAPKAKESSVPQQPKLPEPGQTPIRGIFKSIAKNMDISLEIPTATSVRDMPARLMFENRAMVNDQLKRTRGGKISFTHIIGYAMVKAVMAHPDMNNSYDVIDGKPTLIVPEHINLGLAIDLPQKDGSRALVVAAIKETEKMNFSEFLAAYEDIVARSRKGKLTMDDYQGVTVSLTNPGGIGTRHSVPRLTKGQGTIIGVGSMDYPAEFQGASEDRLAELGVGKLVTITSTYDHRVIQGAVSGEFLRTMSRLLTDDSFWDEIFDAMNVPYTPMRWAQDVPNTGVDKNTRVMQLIEAYRSRGHLIADTNPLSWVQPGMPVPDHRDLDIETHNLTIWDLDRTFNVGGFGGKETMTLREVLSRLRAAYTLKVGSEYTHILDRDERTWLQDRLEAGMPKPTQAEQKYILQKLNAAEAFENFLQTKYVGQKRFSLEGAEALIPLMDSAIDTAAGQGLDEVVIGMPHRGRLNVLFNIVGKPLASIFNEFEGQMEQGQIGGSGDVKYHLGSEGQHLQMFGDGEIKVSLTANPSHLEAVNPVMEGIVRAKQDYLDKGVDGKTVVPLLLHGDAAFAGLGIVPETINLAKLRGYDVGGTIHIVVNNQIGFTTTPDSSRSMHYATDYAKAFGCPVFHVNGDDPEAVVWVGQLATEYRRRFGKDVFIDLVCYRLRGHNEADDPSMTQPKMYELITGRETVRAQYTEDLLGRGDLSNEDAEAVVRDFHDQMESVFNEVKEGGKKQAEAQTGITGSQKLPHGLETNISREELLELGQAFANTPEGFNYHPRVAPVAKKRVSSVTEGGIDWAWGELLAFGSLANSGRLVRLAGEDSRRGTFTQRHAVAIDPATAEEFNPLHELAQSKGNNGKFLVYNSALTEYAGMGFEYGYSVGNEDSIVAWEAQFGDFANGAQTIIDEYVSSGEAKWGQTSKLILLLPHGYEGQGPDHSSARIERFLQLCAEGSMTVAQPSTPANHFHLLRRHALSDLKRPLVIFTPKSMLRNKAAASAPEDFTEVTKFQSVINDPNVADAAKVKKVMLVSGKLYYELAKRKEKDGRDDIAIVRIEMLHPIPFNRISEALAGYPNAEEVLFVQDEPANQGPWPFYQEHLPELIPNMPKMRRVSRRAQSSTATGVAKVHQLEEKQLIDEAFEA
notes: CgE1o C-terminal His tag, pAA62, 134,664 Da, mainly hexamer alone; CgE2 (70,905 Da, lipoylated) co-expressed with N-terminal His/Flag CgE3 (50,652 Da), pKH13; E. coli BL21-CodonPlus (DE3); tags not cut; gel-filtration purified; complex about 940 kDa; with Dihydrolipoamide acetyltransferase component of pyruvate dehydrogenase complex (E2); Dihydrolipoyl dehydrogenase (E3)
Purified protein [5]
  Km: 10 ± 1 µM
